Consider one molecule from publication doi:10.1101/2020.05.04.076190.

This series deals with MycWT bHLH-LZ;Max bHLH-LZ (p21 isoform) (human?;, UniProt P01106;P61244 ;, |). Briefly: EMSA.

B1: CACGTG E-box probe (dsDNA)
DNA 1: GCGCGGGCACGTGGGCCGGGG
DNA 2: CCCCGGCCCACGTGCCCGCGC
As to B1, the binding result is “binds”.
